Measurements: paper PMC4496268

Biological target: syntaxin-1, endogenous in cultured mouse neurons (mouse (endogenous in cultured neurons of Syt1 KO mice)) (UniProt O35526)
Assay: co-IP

Sequence of UniProt O35526 (O35526 whole entry): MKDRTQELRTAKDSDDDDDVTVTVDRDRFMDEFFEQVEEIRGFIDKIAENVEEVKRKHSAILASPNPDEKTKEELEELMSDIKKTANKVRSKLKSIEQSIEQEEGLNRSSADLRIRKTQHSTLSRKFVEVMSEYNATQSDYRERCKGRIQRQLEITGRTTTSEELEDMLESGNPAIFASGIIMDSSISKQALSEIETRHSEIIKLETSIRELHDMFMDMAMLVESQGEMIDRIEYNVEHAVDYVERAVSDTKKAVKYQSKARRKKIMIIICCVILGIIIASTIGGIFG

Synaptotagmin-1 R322E K325E mutant, expressed in Syt1 KO neurons (from UniProt P21707 1-421) (natural protein)
decrease of co-immunoprecipitated Syt1 against WT Syt1: 62%
